The Human Domainome abundance scans (Beltran et al. 2025)
± gives the uncertainty stated by the source.

B1: E3 ubiquitin-protein ligase NEDD4-like, residues 539 to 589; numbered along this chain, Q96PU5 (parent)
chain: KTSLNPNDLGPLPPGWEERIHLDGRTFYIDHNSKITQWEDPRLQNPAITGP

Variants of: B1
Experiment: abundance fitness (aPCA) (normalised: wild type 0, dead -1); higher = more abundant; growth selection in yeast, the domain comes from the species named
Conditions: Homo sapiens

| Variant | abundance fitness |
| --- | --- |
| N7K | -0.063 ± 0.098 |
| N7R | -0.041 ± 0.042 |
| N7M | -0.02 ± 0.066 |
| N7P | -0.05 ± 0.084 |
| N7V | -0.114 ± 0.059 |
| L9V | -0.347 ± 0.32 |
| L9S | -0.237 ± 0.36 |
| L9F | -0.271 ± 0.31 |
| R19S | -0.132 ± 0.066 |
| R19E | -0.192 ± 0.069 |
| R19C | -0.138 ± 0.047 |
| R19F | -0.28 ± 0.088 |
| R19N | -0.368 ± 0.13 |
| R19I | -0.181 ± 0.072 |
| R19D | -0.421 ± 0.078 |
| R19P | -0.969 ± 0.15 |
| R19A | -0.283 ± 0.062 |
| R19Q | -0.361 ± 0.12 |
| R19K | -0.198 ± 0.098 |
| R19M | -0.233 ± 0.081 |
| R19V | -0.155 ± 0.053 |
| R19T | -0.342 ± 0.063 |
| R19H | -0.423 ± 0.093 |
| R19Y | -0.216 ± 0.08 |

| Variant | abundance fitness |
| --- | --- |
| R19G | -0.175 ± 0.047 |
| R19L | -0.354 ± 0.055 |
| P11C | -0.178 ± 0.056 |
| P11H | -0.586 ± 0.12 |
| P11D | -0.025 ± 0.083 |
| P11W | -0.613 ± 0.082 |
| P11V | -0.221 ± 0.044 |
| P11R | -0.168 ± 0.045 |
| P11I | -0.322 ± 0.061 |
| P11M | -0.232 ± 0.057 |
| P11T | -0.127 ± 0.074 |
| P11E | -0.044 ± 0.067 |
| P11L | -0.41 ± 0.063 |
| P11Y | -0.601 ± 0.18 |
| P11G | -0.19 ± 0.055 |
| P11N | -0.177 ± 0.098 |
| P11A | 0.022 ± 0.061 |
| P11F | -0.426 ± 0.059 |
| L12H | -0.863 ± 0.17 |
| L12P | -0.62 ± 0.12 |
| L12F | -0.088 ± 0.071 |
| L12N | -0.534 ± 0.11 |
| L12S | -0.695 ± 0.063 |
| L12V | -0.568 ± 0.048 |

| Variant | abundance fitness |
| --- | --- |
| L12T | -0.427 ± 0.072 |
| L12G | -1.2 ± 0.044 |
| L12W | -0.72 ± 0.053 |
| L12R | -0.864 ± 0.057 |
| L12M | -0.121 ± 0.05 |
| L12C | -0.824 ± 0.12 |
| L12D | -0.736 ± 0.14 |
| L12E | -0.563 ± 0.089 |
| L12Y | -0.788 ± 0.14 |
| L12A | -0.627 ± 0.044 |
| L12I | -0.488 ± 0.097 |
| L12Q | -0.773 ± 0.1 |
| R25A | -0.301 ± 0.047 |
| R25W | -0.72 ± 0.064 |
| R25G | -0.265 ± 0.046 |
| R25I | -0.757 ± 0.043 |
| R25D | -0.287 ± 0.064 |
| R25T | -0.068 ± 0.043 |
| R25Y | -0.569 ± 0.047 |
| R25N | -0.164 ± 0.043 |
| R25C | -0.393 ± 0.042 |
| R25P | -0.558 ± 0.049 |
| R25S | -0.063 ± 0.04 |
| R25E | -0.198 ± 0.052 |

| Variant | abundance fitness |
| --- | --- |
| R25Q | -0.187 ± 0.063 |
| R25F | -0.568 ± 0.044 |
| R25L | -0.598 ± 0.046 |
| R25H | -0.382 ± 0.047 |
| R25M | -0.48 ± 0.048 |
| R25V | -0.54 ± 0.045 |
| L22D | 0.048 ± 0.071 |
| L22Q | 0.152 ± 0.064 |
| L22I | -0.107 ± 0.087 |
| L22G | 0.085 ± 0.043 |
| L22K | 0.206 ± 0.044 |
| L22P | 0.246 ± 0.052 |
| L22R | 0.052 ± 0.043 |
| L22N | -0.247 ± 0.12 |
| L22W | -0.167 ± 0.069 |
| L22C | -0.219 ± 0.088 |
| L22A | 0.156 ± 0.049 |
| L22M | 0.013 ± 0.047 |
| L22V | 0.089 ± 0.043 |
| L22T | 0.141 ± 0.084 |
| L22S | 0.154 ± 0.054 |
| L22Y | 0.07 ± 0.1 |
| L22F | -0.23 ± 0.11 |
| P13D | -0.322 ± 0.095 |

| Variant | abundance fitness |
| --- | --- |
| P13L | -0.745 ± 0.056 |
| P13R | -0.698 ± 0.05 |
| P13Q | -0.585 ± 0.097 |
| P13Y | -0.023 ± 0.1 |
| P13N | -0.437 ± 0.12 |
| P13F | -0.616 ± 0.063 |
| P13E | -0.506 ± 0.053 |
| P13H | -1.04 ± 0.19 |
| P13M | -0.799 ± 0.058 |
| P13C | -0.766 ± 0.07 |
| P13V | -1.1 ± 0.082 |
| P13S | -0.605 ± 0.058 |
| P13K | -0.559 ± 0.085 |
| P13A | -0.495 ± 0.066 |
| P13T | -1 ± 0.12 |
| P13I | -0.933 ± 0.14 |
| T26P | -0.051 ± 0.073 |
| T26H | 0.084 ± 0.079 |
| T26N | -0.187 ± 0.075 |
| T26E | -0.403 ± 0.051 |
| T26F | -0.287 ± 0.08 |
| T26V | -0.077 ± 0.046 |
| T26A | -0.065 ± 0.045 |
| T26Y | -0.105 ± 0.094 |

| Variant | abundance fitness |
| --- | --- |
| T26D | -0.635 ± 0.067 |
| T26C | -0.065 ± 0.085 |
| T26S | -0.113 ± 0.054 |
| T26K | 0.056 ± 0.052 |
| T26I | -0.131 ± 0.098 |
| T26Q | -0.284 ± 0.056 |
| T26W | -0.645 ± 0.065 |
| T26M | -0.125 ± 0.065 |
| T26L | -0.136 ± 0.05 |
| T26R | -0.011 ± 0.045 |
| P14V | -0.122 ± 0.056 |
| P14M | -0.256 ± 0.076 |
| P14F | -0.066 ± 0.091 |
| P14Y | -0.066 ± 0.098 |
| P14S | -0.042 ± 0.054 |
| P14Q | -0.17 ± 0.11 |
| P14D | 0.023 ± 0.084 |
| P14R | -0.085 ± 0.049 |
| P14N | -0.355 ± 0.12 |
| P14W | -0.433 ± 0.1 |
| P14K | -0.044 ± 0.044 |
| P14I | -0.227 ± 0.066 |
| P14T | -0.118 ± 0.068 |
| P14H | -0.159 ± 0.067 |

| Variant | abundance fitness |
| --- | --- |
| P14A | 0.008 ± 0.066 |
| P14E | 0.009 ± 0.048 |
| P14G | -0.205 ± 0.067 |
| P14C | -0.1 ± 0.068 |
| P14L | -0.204 ± 0.046 |
| D23R | -0.645 ± 0.059 |
| D23V | -0.876 ± 0.055 |
| D23C | -0.135 ± 0.057 |
| D23H | -0.593 ± 0.062 |
| D23L | -0.548 ± 0.068 |
| D23P | -0.445 ± 0.069 |
| D23K | -0.333 ± 0.088 |
| D23G | -0.388 ± 0.056 |
| D23F | -1.12 ± 0.16 |
| D23Q | -0.252 ± 0.089 |
| D23T | -0.031 ± 0.073 |
| D23N | -0.064 ± 0.065 |
| D23S | -0.036 ± 0.06 |
| D23E | -0.584 ± 0.085 |
| D23I | -0.725 ± 0.067 |
| D23A | -0.779 ± 0.079 |
| D23Y | -0.715 ± 0.054 |
| D23M | -0.5 ± 0.056 |
